T1: ADAM9 on human tumor cells (LS174T, HepG2, Calu-3, Colo205) (human, UniProt Q13443 29-819)
T1 sequence (looked up): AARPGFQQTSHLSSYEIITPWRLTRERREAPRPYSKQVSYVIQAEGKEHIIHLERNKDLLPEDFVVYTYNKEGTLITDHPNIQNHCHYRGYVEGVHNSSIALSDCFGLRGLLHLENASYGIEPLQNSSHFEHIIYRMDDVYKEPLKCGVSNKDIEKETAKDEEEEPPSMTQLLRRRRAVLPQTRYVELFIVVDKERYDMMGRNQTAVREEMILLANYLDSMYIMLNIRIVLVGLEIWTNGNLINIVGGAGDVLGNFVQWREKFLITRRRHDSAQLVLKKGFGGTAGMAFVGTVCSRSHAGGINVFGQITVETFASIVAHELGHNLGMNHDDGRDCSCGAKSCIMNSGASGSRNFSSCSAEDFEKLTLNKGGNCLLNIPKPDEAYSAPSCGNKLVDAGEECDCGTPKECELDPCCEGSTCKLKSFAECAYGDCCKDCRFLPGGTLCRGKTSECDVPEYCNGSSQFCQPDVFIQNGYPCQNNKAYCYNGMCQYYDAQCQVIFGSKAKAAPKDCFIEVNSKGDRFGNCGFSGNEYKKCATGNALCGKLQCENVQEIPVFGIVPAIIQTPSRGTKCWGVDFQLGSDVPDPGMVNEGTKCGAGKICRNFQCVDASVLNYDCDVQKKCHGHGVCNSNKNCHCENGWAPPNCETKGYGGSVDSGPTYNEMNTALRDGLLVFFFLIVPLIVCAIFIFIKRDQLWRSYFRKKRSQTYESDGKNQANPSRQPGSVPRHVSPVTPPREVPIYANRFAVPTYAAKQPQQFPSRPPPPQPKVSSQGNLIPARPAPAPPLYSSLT

T2: Monkey ADAM9 protein (ACRO, Cat. No. AD9-C52H7) (cynomolgus monkey, UniProt A0A2K5X4X8 29-697)
T2 construct: Bought protein; also called cynomolgus ADAM9 protein; monkey ADAM9 antigen
T2 sequence: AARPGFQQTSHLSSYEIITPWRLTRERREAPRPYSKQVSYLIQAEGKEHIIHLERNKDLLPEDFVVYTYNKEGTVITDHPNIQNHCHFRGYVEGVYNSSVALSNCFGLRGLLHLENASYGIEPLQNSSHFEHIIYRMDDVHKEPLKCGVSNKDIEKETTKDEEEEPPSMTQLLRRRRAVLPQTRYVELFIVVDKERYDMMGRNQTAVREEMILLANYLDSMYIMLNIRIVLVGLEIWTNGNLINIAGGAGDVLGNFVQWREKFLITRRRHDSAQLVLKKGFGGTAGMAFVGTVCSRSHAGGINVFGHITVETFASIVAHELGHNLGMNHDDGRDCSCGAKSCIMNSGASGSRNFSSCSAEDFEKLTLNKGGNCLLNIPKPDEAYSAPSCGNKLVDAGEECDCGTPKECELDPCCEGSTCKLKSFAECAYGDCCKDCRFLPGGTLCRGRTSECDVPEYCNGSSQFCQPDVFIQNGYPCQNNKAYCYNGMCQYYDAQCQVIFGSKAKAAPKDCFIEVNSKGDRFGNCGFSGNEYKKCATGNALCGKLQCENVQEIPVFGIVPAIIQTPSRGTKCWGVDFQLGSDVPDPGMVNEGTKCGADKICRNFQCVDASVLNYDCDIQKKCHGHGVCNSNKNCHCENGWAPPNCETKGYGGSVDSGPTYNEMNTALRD


Key:
[1] = biological target: T1, ADAM9 on human tumor cells (LS174T, …); experiment: cell-based or functional assay
[2] = biological target: T2, Monkey ADAM9 protein (ACRO, Cat. No. …); experiment: SPR (Biacore 8K), antibody captured by anti-human Fc on CM5, monkey ADAM9 as analyte
Procedure: Chip preparation: The mouse anti-human IgG (Fc) antibody (Cat. No. 29234600, Cytiva) was diluted to 25 μg/mL in immobilization buffer (10 mM sodium acetate, pH 5.0), specifically by adding 950 μL of the immobilization buffer to 50 μL of the mouse anti-human IgG (Fc) antibody. The dilution was used for immobilization in eight channels. First, the surface of the CM5 chip was activated with 400 mM EDC and 100 mM NHS at a flow rate of 10 μL/min for 420 seconds. Then, 25 μg/mL of the mouse anti-human IgG (Fc) antibody was injected into the test channels at a flow rate of 10 μL/min for approximately 360 seconds, with the level of immobilization at approximately 7000 to 14000 RU. Finally, the chip was blocked with 1 M ethanolamine at a flow rate of 10 μL/min for 420 seconds. The reference channels underwent the same procedures as the test channels.
Ligand capture: Antibodies Ab10, Ab15, Ab16, and hMAB-A (2I.2) were diluted to 4 μg/mL in running buffer (containing 10 mM N-(2-hydroxyethyl)piperazine-N-2-ethanesulfonic acid (HEPES), 150 mM sodium chloride (NaCl), 3 mM ethylenediaminetetraacetic acid (EDTA), 0.005% Tween-20, pH adjusted to 7.4) and injected into the test channels for human IgG (Fc) capture at a flow rate of 10 μL/min at approximately 200 RU. No ligand capture was performed in the reference channels.
Analyte multi-cycle analysis: Human and cynomolgus ADAM9 proteins (human ADAM9 protein purchased from ACRO, Cat. No. AD9-H52H7; monkey ADAM9 protein purchased from ACRO, Cat. No. AD9-C52H7) were diluted 2-fold in running buffer (Table 10). The diluted human or cynomolgus ADAM9 protein was sequentially injected into the test channels and the reference channels at a flow rate of 30 μL/min, with corresponding association and dissociation times. Both the association and dissociation steps were performed in the running buffer. After each concentration analysis, the chip was regenerated with 3 M magnesium chloride at a flow rate of 20 μL/min for 30 seconds to wash away the ligand and any undissociated analyte. For the next concentration analysis, the test channels required re-capture of the same amount of ligand.

Row | EC50 for internalization [1] [nM] | Maximum internalization rate (%) [1] [%] | Kd [2] [nM] | koff [2] [s⁻¹] | kon [2] [M⁻¹ s⁻¹] | Binder
1 | 0.17 | 81.8 | 9.47 | 0.000461 | 48700 | Ab15 (antibody, human IgG1, kappa, V domains shown, Humanized anti-ADAM9 IgG1/kappa; also called Ab15-V (variable regions)) VH: QVQLQQPGAELKKPGASVKVSCKASGFTFPLYWMNWVRQRPGRGLEWIGRIIPIFGHTKYNEKFKDRATMTADESSSTAYMELSSLTSEDSAVYYCARGGYYYYPREGFLDYWGQGTSVTVSS VL: DIVMTQSPDSLSVSPGERATINCRSSQSVDYSGDSYMNWYQQKPGQSPRLLIYAASDRESGVPDRFSGSGSGTDFTLKISNVEEEDAATYYCQQSREDPFTFGQGTRVEIKR
2 | 0.12 | 83.3 | 8.61 | 0.000528 | 61300 | Ab16 (antibody, human IgG1, kappa, V domains shown, Humanized anti-ADAM9 IgG1/kappa; also called Ab16-V (variable regions)) VH: QVQLQQPGTEVVKPGASVKLSCKASGFTFPLYWMHWVRQRPGRGLEWIGRIIPIFGHTKYNEKFKNKATLTADESSSTAYMELRSLTSDDSAVYYCARGGYYYYPREGFLDYWGQGTSVTVSS VL: DIVMTQSPASLSVSPGERASISCRSSQSVDYSGDSYMNWYQQKPGQSPRLLIYAASDRESGVPDRFSGSGSGTDFTLKISRVEEEDAGTYYCQQSREDPFTFGQGTKVDIKR

From patent publication US20260242515A1 (DUALITY BIOLOGICS SHANGHAI, published 2026)
